This note sets out measurements from patent US20220195015A1 (published 2022).

The term EC50 denotes the concentration needed to bring the measured effect to its halfway point. Higher therefore signals a less potent agent.

Numbering of substitutions follows the chain as printed.

First the molecules themselves.
B1: C591 (antibody, V domains shown)
VH: QVQLVQSGAEVKKPGASVKVSCKASGYILTDYFIHWVRQAPGQGLEWMGWINPNSGGTNYAQKFQGRVTMTRDTSISTAYMELSRLRSDDTAVYHCARYKGTTVNTNYYYGMDVWGQGTTVTVSS
VL: not shown
B2: C592 (antibody, V domains shown)
VH: B1 VH with I28T, L29F, I34N, Y60S, S77T, A79V, H95Y
VL: SYELTQPPSVSVSPGQTASITCSGDKLRNKYACWYQQKAGQSPMLVIYQDTKRPSGIPERFSGSNSGNTATLTISGTQAMDEADYYCQAWDISTVVFGGGTKLTVL
B3: C529 (antibody, V domains shown)
VH: EVQLLESGGGLVQPGGSLRLSCAASGFTFNNYAMNWVRQAPGRGLEWVSGISGSGANTYYADSVKGRFTISRDNPKNTLSLQMNSLRAEDTALYYCAKVLSPTYYDSWSGPDAFDFWGQGTMVTVSS
VL: DIQMTQSPSTLSASVGDRVTITCRASQTISPWLAWYQQKPGKAPNLLIYKASSLESGVPSRFSGSGSGTEFTLTISSLQPDDFATYYCQQYNSYSSWTFGQGTKVEIK
B4: C581 (antibody, V domains shown)
VH: EVQLVQSGAEVKKPGESLKISCKGSGYRFTSYWIAWVRQMPGKGLEWMGIIYPGDSDTRYSPSFQGQVTISADQSISTAYLQWSSLKASDTAMYYCARGGPPGGVKLELTDYWGQGALVTVSS
VL: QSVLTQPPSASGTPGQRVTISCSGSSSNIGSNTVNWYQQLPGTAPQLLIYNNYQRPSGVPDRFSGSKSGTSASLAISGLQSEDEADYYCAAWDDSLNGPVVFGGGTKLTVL
B5: C565 (antibody, V domains shown)
VH: EVQLVESGGGLIQPGGSLRLSCAASGLIVSSNYMNWVRQAPGKGLEWVSLLYSGGSTYYADSVKGRFTISRDNSKNTLYLQMNSLRPEDTAVYYCARDLSVVGAFDIWGQGTMVTVSS
VL: EIVLTQSPGTLSLSPGERATLSCRASQSLPSTYLAWYQQKRGQAPRLLIYGASSRATGIPDRFSGSGSGTDFTLTISRLEPEDFAVYYCQQYGTSPRVTFGPGTKVDIK
B6: C566 (antibody, V domains shown)
VH: QVQLQESGPGLVKSSQTLSLNCSVFGASISSGGYYWTWIRQHPGKGLEWIGYIHYRGTYYNPSLKSRVTMSVDTSKNQFSLKVRSVSAADTAIYYCARAIVVVTLNWFDLWGQGTLVTVSS
VL: NFMLTQPHSVSESPGKTVTISCSGSGGSIASNYVQWYQQRPGSAPTAVIYEDNQRPSGVPDRFSGSIDSSSNSASLTISGLKTEDEADYYCQSYDTSNPVIFGGGTKLTV
B7: C531 (antibody, V domains shown)
VH: EVQLVESGGGLVQPGRSLRLSCVATGFTFDDFAMHWVRQAPGKGLEWVSGISWNGGIIGYVDSVKGRFTISRDNAKNSLYLQMNSLRPEDTALYYCVKGYRYYYDILTGYYNDAGAFDYWGQGTLVTVSS
VL: DIQSTQSPSFLSASVGDRVAITCRASQGISSYLAWYQQKPGKAPKLLIYPASTLQSGVPSGFSGSGSGTEFTLTISSLQPEDFATYYCQQLNDYPFTFGPGTKVDIK
B8: C580 (antibody, V domains shown)
VH: EVQLVQSGAEVKKAGESLKISCNSSGYSFTNYWIAWVRQVPGKGLEWMGIIYLGDSDTRYSPSFQGRVTISADKSISAAYLHWSSLKASDTAIYYCARGGPPGGVKLELTDFWGQGTLVTVSS
VL: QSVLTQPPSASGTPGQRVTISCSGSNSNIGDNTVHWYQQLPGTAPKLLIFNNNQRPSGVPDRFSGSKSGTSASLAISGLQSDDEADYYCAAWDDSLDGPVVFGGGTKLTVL
B9: C576 (antibody, V domains shown)
VH: QVQLVQSGAEVKKPGSSVKVSCKASGGTFSIYAISWVRQAPGQGLEWMGGIIPILGTANYAQKFQGRVTITADESTSTAYMELSSLRSEDTAVYYCASFHVAYGDYIPFDYWGQGTLVTVSS
VL: not shown
B10: C568 (antibody, V domains shown)
VH: QVQLVQSGAEVKKPGASVKVSCTASGYTFSSYYIHWVRQAPGQGLEWMGIINPGAGSTSYAQKFQGRVAMTTDTSTRTVYMELSSLRSDDTAVYYCARDEAFLPSAIFVGDYWGQGTLVTVSS
VL: DIQMTQSPSSLSASVGDRVTITCRASQGIRNDLGWYQQKPGKAPKRLIYAASNLQSGVPSRFSGSGSGTEFTLTISSLQPEDFATYYCLQHSTYPHTWTFGQGTKVEIK
B11: C574 (antibody, V domains shown)
VH: QVQLVQSGAEVKKPGASVKVSCKASGYTFTSYGFSWVRQAPGQGLEWLGWISAYNGNTNYAQKLQGRVTMTTDTSTSTAYMELRSLRSDDTAVYYCARAIAVAGTSGEFDYWGQGTLVTVSS
VL: not shown
B12: C530 (antibody, V domains shown)
VH: QVQLVESGGGVAQPGRSLRLSCAASGFTFSRYGMHWVRQAPGKGLEWVAVIWHDGSDKYCADFVKGRFTISRDNSKNTLYMQMDSLRAEDTAVYYCARGGRPDHETGIAVLGEYYFDSWGQGTLVTVSS
VL: SYELTQPPSVSVSPGQTARITCSGDAFPLQYGYWYQQKPGQAPVLVIYKDKERPSGISERFSGSSSGTTVTLTISGVQAEDEADYYCQSADTNGVVFGGGTSLTVL
B13: C567 (antibody, V domains shown)
VH: QVQLQESGPGLVKPSETLSLTCTVSGGSVINGSYYWSWIRQPPGKGLEWIGFVYYSGSTNYNPSLKSRVTISVDTSKNQFSLNLNSVTAADTAVYYCATGSKSSYYFDYWGQGTLVTVSS
VL: QSVLTQPPSVSAAPGQKVTISCSGSSSNIGNNYVSWYQQLPGAAPKLLIYENNMRPSGIPDRFSGSKSGTSATLGITGLQTGDEADYYCGTWDSSLSVPYVFGTGTRVTVL
B14: C571 (antibody, V domains shown)
VH: EVQLVESGGGLIQPGGSLKLSCVVSGFTVSRNYISWVRQAPGKGLEWVSVLFAGGSTFYADSVKGRFAISRDNSNNTLFLQMNSLRVEDTAIYYCARGDGELIFDQWGQGTLVTVSS
VL: QSVLTQPPSVSGAPGQRVTIVCTGTSSNIGAGYDVHWYQQLPGRAPKVLVSGNNIRPSEVPDRFSGSRSGTSASLAITSLQPEDEAQYYCQSYDSNLYAVFGGGTKLTVL
B15: C594 (antibody, V domains shown)
VH: QVQLVESGGGVVQPGRSLRLSCAASGFTFSSYGMHWVRQAPGKGLEWVAVISDDGSNKYYADSVKGRFTISRDNSKNTLYLQMNSLRAEDTAVYYCAKSWWLSENWFDPWGQGTLVTVSS
VL: EIVMTQSPATLSVSPGERATLSCRASQSVSSNLAWYQQKPGQAPRLLIYGASTRATGIPARFSGTGSGTEFTLTISSLQSEDFAVYYCQQYNNWPLTFGGGTKVEIK
B16: C595 (antibody, V domains shown)
VH: B15 VH with P14A, Y32F, M34L, S56A, E89D, V93K
VL: B15 VL with S30R, T65S, E70D
B17: C596 (antibody, V domains shown)
VH: QVQLVESGGGVVQPGRSLRLSCAASGITFSHYGMHWVRQAPGKGLEWVALISSDGSKKYYADSVKGRFTISRDNSKSTLYLQMNSLRAEDTAIYYCAKDLGYYYGPPYGPDYWGQGTLVTVSS
VL: DIQMTQSPSSLSASVGDRVTITCQASQDVSNSLNWYQQKPGKAPKLLIYDASNLETGVPSRFSGSGSGTDFSFTISSLQPEDIATYYCLQYDNFSMYTFGQGTKLEIK
B18: C572 (antibody, V domains shown)
VH: EVQLVESGGGLIKPGRSLRLSCTASGFTFGDYAMTWFRQAPGKGLEWVGFIRSKAYGGTTGYAASVKYRFTISRDDSKSIAYLQMDSLKTEDTAVYYCTRWDGWSQHDYWGQGTLVTVSS
VL: DIVMTQSPLSLSVTPGEPASISCRSSQSLLHSNGNNYFDWYLQKPGQSPQLLIYLASNRASGVPDRFSGSGSGTDFTLKISRVEAEDVGVYYCMQVLQIPYTFGQGTKLEI
B19: C569 (antibody, V domains shown)
VH: QVQLVESGGNVVQPGRSLRLSCAASGFTFSNYGMHWIRQAPGKGLEWVAVISYDGSDKYYADSVKGRVTISRDNSKNTLYLQMNSLRAEDTAVYYCAKGGPYGDHVRSDYWGLGTLVTVSS
VL: DIQMTQSPSSLSASVGDRVTITCQASQDISNYLNWYQQKPGKVPKLLIYDASNLETGVPSRFSGSGSGTDFTFTISSLQPEDIATYYCQQFHNLPLTFGQGTKLEIK
B20: C573 (antibody, V domains shown)
VH: QVQLQESGPGLVKPSGTLSLTCAVSGGSISTVNWWSWVRQPPGKGLEWIGEIHHSGNTNHNPSLRSRVTISVDKSKNQFSLKLRSVTAADTAVYYCARDGGRPGDAFDLWGQGTMVTVSS
VL: QSALTQPASVSGSPGQSITISCTGTSSDVGGYNYVSWYQQHPGKVPKVMIYDVSNRPSGISNRFSGSKSGNTASLTISGLQAEDEADYYCNSYRSNSTRVFGTGTKVTV
B21: C577 (antibody, V domains shown)
VH: QVQLVQSGAEVKKPGSSVKVSCKASGDTFSIYAFSWVRQAPGQGLQWMGAIIPLLGTTNYAQKFLGRVTITADESTSTTFMELSSLTSEDTAVYHCATFHVAYGDYIPFDSWGQGTLVIVSS
VL: not shown
B22: C578 (antibody, V domains shown)
VH: QVQLVESGGGVVQPGRSLRLSCAASGFTFSSSGMHWVRQAPGKGLEWVAIISYDGSNKYYADSVKGRFTISRDNSKNTLSLQMNSLRAEDTAVYYCAKDPLPFRDFFYYYMDVWGKGTTVTVSS
VL: QSALTQPASVSGSPGQSITISCTGTSSDVGGYNYVSWYQQHPGKAPKLMIYDVSNRPSGVSNRFSGSKSGNTASLTISGLQAEDEADYYCSSYTSSSTLGVFGTGTKVTVL
B23: C570 (antibody, V domains shown)
VH: QVQLQESGPGLVKPSETLSLTCTVSGASISSYYWSWIRQPPGKGLEWIGYIYYSGSTNYNPSLKSRVTISLDTSKNQFSLQLSSVTAADTAVYYCATYYFDNSGYSYGLDVWGQGTTVTVSS
VL: DIQMTQSPSSLSASVGDRVTIACRASQSISSYLHWYQQQPGKAPKLLIYAVTNLQSGVPSRFSGSGSGTDFTLTISSLQPEDFATYYCQQSYSLPQTFGQGTKVEIK
B24: C593 (antibody, V domains shown)
VH: QVQLVQSGAEVKKPGASVKVSCKASGYTFTSYDINWVRQAPGQGLEWMGWMNPNSGNTDYAQKFQGRFTMTRNTSISTAYMELSSLRSEDTAVYYCASRRWDPLTFYYYMVVWGKGTTVTVSS
VL: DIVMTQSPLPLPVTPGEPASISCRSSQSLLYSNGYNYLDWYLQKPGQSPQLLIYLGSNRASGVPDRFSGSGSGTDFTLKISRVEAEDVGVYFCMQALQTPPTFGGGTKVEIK

The assay has as its target SARS-CoV-2 spike receptor binding domain (RBD), wild type (SARS-CoV-2, UniProt P0DTC2 319-539). The experiment in a line: ELISA, RBD protein coated, mAb titrated.
Regarding B1, a half-maximal effect (EC50) was put at 3.83 ng/mL.

In turn, B2 showed an EC50 of 6 ng/mL.

Regarding B3, the 50% effective concentration (EC50) stood at 8 ng/mL.

For B4, the response was half-maximal at 1.58 ng/mL (EC50).

B5 registered a half-maximal effective concentration (EC50) of 1.27 ng/mL.

Molecule B6 came in with a 50% effective concentration (EC50) of 5.88 ng/mL.

Regarding B7, the EC50 was 6.84 ng/mL.

For the molecule B8, the EC50 was found to be 1.81 ng/mL.

Regarding B9, the concentration for a half-maximal effect (EC50) is 5.29 ng/mL.

B10 returned an EC50 of 5.99 ng/mL.

B11 yielded an EC50 of 8.12 ng/mL.

B12 had a 50% effective concentration (EC50) of 10.5 ng/mL.

Molecule B13 registered a 50% effective concentration (EC50) of 18.9 ng/mL.

Consider B14, for which the midpoint of the response, the EC50, lay at 4.62 ng/mL.

B15 yielded an EC50 of 2.63 ng/mL.

For the molecule B16, the EC50 turned out to be 2.04 ng/mL.

For B17, the EC50 came out at 21 ng/mL.

In the case of B18, the response was half-maximal at 2.9 ng/mL (EC50).

B19 came in with an EC50 of 11.1 ng/mL.

In the case of B20, the midpoint of the response, the EC50, lay at 2.2 ng/mL.

B21 had an EC50 of 1.32 ng/mL.

Turning to B22, it took 1.08 ng/mL to reach a half-maximal effect (EC50).

For the molecule B23, a half-maximal response (EC50) required 0.74 ng/mL.

B24 registered a concentration for a half-maximal effect (EC50) of 4.36 ng/mL.
